B1: Ic_S2_P5E.1_K5.1_C5.1_H5.1_A5.1_[T6C]_[A7T]_F5.1_[T8A]_T5.1 (ssRNA)
RNA: UUUGAUUAAUAUGAUAUCGUUCUUUCUUGUAUCUAUAUUCUUUCUCGAUAUCAUAUUAAUCUUU
B2: Ic_S2_P5E.1_K5.1_C5.1_H5.1_A5.1_[T5C]_[A7T]_F5.1_[T8A]_[T9C]_[A10G]_T5.1 (ssRNA)
RNA: UUUGAUUAAUAUGAUAUCGUUCUUUCUUGUACUUACGUUCUUUCUCGAUAUCAUAUUAAUCUUU
B3: Ic_S2_P5E.1_K5.1_C5.1_H5.1_A5.1_[T6C]_[A7C]_F5.1_[T8C]_T5.1 (ssRNA)
RNA: UUUGAUUAAUAUGAUAUCGUUCUUUCUUGUAUCCCUAUUCUUUCUCGAUAUCAUAUUAAUCUUU
B4: Ic_S2_P5E.1_K5.1_C5.1_H5.1_A5.1_[T6C]_[A7G]_F5.1_[T8A]_[A10C]_T5.1 (ssRNA)
RNA: UUUGAUUAAUAUGAUAUCGUUCUUUCUUGUAUCGAUCUUCUUUCUCGAUAUCAUAUUAAUCUUU
B5: Ic_S2_P5E.1_K5.1_C5.1_H5.1_A5.1_[T5A]_F5.1_[T8A]_[A10G]_T5.1 (ssRNA)
RNA: UUUGAUUAAUAUGAUAUCGUUCUUUCUUGUAAUAAUGUUCUUUCUCGAUAUCAUAUUAAUCUUU
B6: Ic_S2_P5E.1_K5.1_C5.1_H5.1_A5.1_[T6C]_F5.1_[T9G]_[A10C]_T5.1 (ssRNA)
RNA: UUUGAUUAAUAUGAUAUCGUUCUUUCUUGUAUCAUGCUUCUUUCUCGAUAUCAUAUUAAUCUUU
B7: Ic_S2_P5E.1_K5.1_C5.1_H5.1_A5.1_[T5A]_[T6C]_F5.1_[T8C]_[T9C]_T5.1 (ssRNA)
RNA: UUUGAUUAAUAUGAUAUCGUUCUUUCUUGUAACACCAUUCUUUCUCGAUAUCAUAUUAAUCUUU
B8: Ic_S2_P5E.1_K5.1_C5.1_H5.1_A5.1_[T6C]_[A7G]_F5.1_[T8C]_[T9C]_T5.1 (ssRNA)
RNA: UUUGAUUAAUAUGAUAUCGUUCUUUCUUGUAUCGCCAUUCUUUCUCGAUAUCAUAUUAAUCUUU
B9: Ic_S2_P5E.1_K5.1_C5.1_H5.1_A5.1_[T6A]_[A7T]_F5.1_[T9C]_[A10C]_T5.1 (ssRNA)
RNA: UUUGAUUAAUAUGAUAUCGUUCUUUCUUGUAUAUUCCUUCUUUCUCGAUAUCAUAUUAAUCUUU
B10: Ic_S2_P5E.1_K5.1_C5.1_H5.1_A5.1_[T5C]_[T6A]_[A7T]_F5.1_[T8A]_[T9G]_[A10T]_T5.1 (ssRNA)
RNA: UUUGAUUAAUAUGAUAUCGUUCUUUCUUGUACAUAGUUUCUUUCUCGAUAUCAUAUUAAUCUUU
B11: Ic_S2_P5E.1_K5.1_C5.1_H5.1_A5.1_[T5C]_[T6A]_[A7T]_F5.1_[T9A]_[A10C]_T5.1 (ssRNA)
RNA: UUUGAUUAAUAUGAUAUCGUUCUUUCUUGUACAUUACUUCUUUCUCGAUAUCAUAUUAAUCUUU
B12: Ic_S2_P5E.1_K5.1_C5.1_H5.1_A5.1_[T6A]_[A7C]_F5.1_[T8C]_[T9C]_[A10G]_T5.1 (ssRNA)
RNA: UUUGAUUAAUAUGAUAUCGUUCUUUCUUGUAUACCCGUUCUUUCUCGAUAUCAUAUUAAUCUUU
B13: Ic_S2_P5E.1_K5.1_C5.1_H5.1_A5.1_[T5G]_[A7G]_F5.1_[T8G]_[T9C]_[A10C]_T5.1 (ssRNA)
RNA: UUUGAUUAAUAUGAUAUCGUUCUUUCUUGUAGUGGCCUUCUUUCUCGAUAUCAUAUUAAUCUUU
B14: Ic_S2_P5E.1_K5.1_C5.1_H5.1_A5.1_[A7C]_F5.1_[T8C]_[T9A]_T5.1 (ssRNA)
RNA: UUUGAUUAAUAUGAUAUCGUUCUUUCUUGUAUUCCAAUUCUUUCUCGAUAUCAUAUUAAUCUUU
B15: Ic_S2_P5E.1_K5.1_C5.1_H5.1_A5.1_[T5A]_[A7T]_F5.1_[T8C]_[T9A]_[A10C]_T5.1 (ssRNA)
RNA: UUUGAUUAAUAUGAUAUCGUUCUUUCUUGUAAUUCACUUCUUUCUCGAUAUCAUAUUAAUCUUU
B16: Ic_S2_P5E.1_K5.1_C5.1_H5.1_A5.1_[T6C]_F5.1_[T8A]_[A10G]_T5.1 (ssRNA)
RNA: UUUGAUUAAUAUGAUAUCGUUCUUUCUUGUAUCAAUGUUCUUUCUCGAUAUCAUAUUAAUCUUU
B17: Ic_S2_P5E.1_K5.1_C5.1_H5.1_A5.1_[T5C]_[T6A]_[A7G]_F5.1_[A10G]_T5.1 (ssRNA)
RNA: UUUGAUUAAUAUGAUAUCGUUCUUUCUUGUACAGUUGUUCUUUCUCGAUAUCAUAUUAAUCUUU
B18: Ic_S2_P5E.1_K5.1_C5.1_H5.1_A5.1_[T5G]_[T6C]_[A7T]_F5.1_[T8G]_[T9G]_[A10T]_T5.1 (ssRNA)
RNA: UUUGAUUAAUAUGAUAUCGUUCUUUCUUGUAGCUGGUUUCUUUCUCGAUAUCAUAUUAAUCUUU
B19: Ic_S2_P5E.1_K5.1_C5.1_H5.1_A5.1_[T5A]_[A7T]_F5.1_[T9G]_[A10C]_T5.1 (ssRNA)
RNA: UUUGAUUAAUAUGAUAUCGUUCUUUCUUGUAAUUUGCUUCUUUCUCGAUAUCAUAUUAAUCUUU
B20: Ic_S2_P5E.1_K5.1_C5.1_H5.1_A5.1_[T5C]_[T6G]_[A7T]_F5.1_[T8G]_[A10T]_T5.1 (ssRNA)
RNA: UUUGAUUAAUAUGAUAUCGUUCUUUCUUGUACGUGUUUUCUUUCUCGAUAUCAUAUUAAUCUUU
B21: Ic_S2_P5E.1_K5.1_C5.1_H5.1_A5.1_[T5C]_[A7G]_F5.1_[T8G]_T5.1 (ssRNA)
RNA: UUUGAUUAAUAUGAUAUCGUUCUUUCUUGUACUGGUAUUCUUUCUCGAUAUCAUAUUAAUCUUU
B22: Ic_S2_P5E.1_K5.1_C5.1_H5.1_A5.1_[T5C]_[A7T]_F5.1_[T8G]_[A10T]_T5.1 (ssRNA)
RNA: UUUGAUUAAUAUGAUAUCGUUCUUUCUUGUACUUGUUUUCUUUCUCGAUAUCAUAUUAAUCUUU
B23: Ic_S2_P5E.1_K5.1_C5.1_H5.1_A5.1_[T5A]_[A7C]_F5.1_[T8C]_[T9G]_[A10C]_T5.1 (ssRNA)
RNA: UUUGAUUAAUAUGAUAUCGUUCUUUCUUGUAAUCCGCUUCUUUCUCGAUAUCAUAUUAAUCUUU
B24: Ic_S2_P5E.1_K5.1_C5.1_H5.1_A5.1_[T5G]_[A7G]_F5.1_[T8C]_[T9C]_T5.1 (ssRNA)
RNA: UUUGAUUAAUAUGAUAUCGUUCUUUCUUGUAGUGCCAUUCUUUCUCGAUAUCAUAUUAAUCUUU
B25: Ic_S2_P5E.1_K5.1_C5.1_H5.1_A5.1_[T5C]_[A7G]_F5.1_[T9G]_[A10T]_T5.1 (ssRNA)
RNA: UUUGAUUAAUAUGAUAUCGUUCUUUCUUGUACUGUGUUUCUUUCUCGAUAUCAUAUUAAUCUUU
B26: Ic_S2_P5E.1_K5.1_C5.1_H5.1_A5.1_[T5C]_[T6C]_F5.1_[T9C]_[A10C]_T5.1 (ssRNA)
RNA: UUUGAUUAAUAUGAUAUCGUUCUUUCUUGUACCAUCCUUCUUUCUCGAUAUCAUAUUAAUCUUU
B27: Ic_S2_P5E.1_K5.1_C5.1_H5.1_A5.1_[T5C]_[T6A]_F5.1_[T9C]_[A10T]_T5.1 (ssRNA)
RNA: UUUGAUUAAUAUGAUAUCGUUCUUUCUUGUACAAUCUUUCUUUCUCGAUAUCAUAUUAAUCUUU
B28: Ic_S2_P5E.1_K5.1_C5.1_H5.1_A5.1_[T5C]_[T6C]_[A7C]_F5.1_[T8A]_[T9G]_[A10C]_T5.1 (ssRNA)
RNA: UUUGAUUAAUAUGAUAUCGUUCUUUCUUGUACCCAGCUUCUUUCUCGAUAUCAUAUUAAUCUUU
B29: Ic_S2_P5E.1_K5.1_C5.1_H5.1_A5.1_[A7T]_F5.1_[T9C]_[A10T]_T5.1 (ssRNA)
RNA: UUUGAUUAAUAUGAUAUCGUUCUUUCUUGUAUUUUCUUUCUUUCUCGAUAUCAUAUUAAUCUUU
B30: Ic_S2_P5E.1_K5.1_C5.1_H5.1_A5.1_[T5C]_[T6C]_F5.1_[T8C]_[T9C]_[A10G]_T5.1 (ssRNA)
RNA: UUUGAUUAAUAUGAUAUCGUUCUUUCUUGUACCACCGUUCUUUCUCGAUAUCAUAUUAAUCUUU
B31: Ic_S2_P5E.1_K5.1_C5.1_H5.1_A5.1_[T5G]_F5.1_[T8C]_[T9C]_[A10T]_T5.1 (ssRNA)
RNA: UUUGAUUAAUAUGAUAUCGUUCUUUCUUGUAGUACCUUUCUUUCUCGAUAUCAUAUUAAUCUUU
B32: Ic_S2_P5E.1_K5.1_C5.1_H5.1_A5.1_[T5A]_[A7C]_F5.1_[T9A]_T5.1 (ssRNA)
RNA: UUUGAUUAAUAUGAUAUCGUUCUUUCUUGUAAUCUAAUUCUUUCUCGAUAUCAUAUUAAUCUUU
B33: Ic_S2_P5E.1_K5.1_C5.1_H5.1_A5.1_[T6C]_[A7T]_F5.1_[T9A]_[A10T]_T5.1 (ssRNA)
RNA: UUUGAUUAAUAUGAUAUCGUUCUUUCUUGUAUCUUAUUUCUUUCUCGAUAUCAUAUUAAUCUUU
B34: Ic_S2_P5E.1_K5.1_C5.1_H5.1_A5.1_[T5C]_[T6C]_[A7C]_F5.1_[A10T]_T5.1 (ssRNA)
RNA: UUUGAUUAAUAUGAUAUCGUUCUUUCUUGUACCCUUUUUCUUUCUCGAUAUCAUAUUAAUCUUU
B35: Ic_S2_P5E.1_K5.1_C5.1_H5.1_A5.1_[T6C]_[A7T]_F5.1_[T9C]_[A10C]_T5.1 (ssRNA)
RNA: UUUGAUUAAUAUGAUAUCGUUCUUUCUUGUAUCUUCCUUCUUUCUCGAUAUCAUAUUAAUCUUU
B36: Ic_S2_P5E.1_K5.1_C5.1_H5.1_A5.1_[A7C]_F5.1_[T8G]_[A10T]_T5.1 (ssRNA)
RNA: UUUGAUUAAUAUGAUAUCGUUCUUUCUUGUAUUCGUUUUCUUUCUCGAUAUCAUAUUAAUCUUU
B37: Ic_S2_P5E.1_K5.1_C5.1_H5.1_A5.1_[T5G]_[T6C]_F5.1_[T8C]_[A10T]_T5.1 (ssRNA)
RNA: UUUGAUUAAUAUGAUAUCGUUCUUUCUUGUAGCACUUUUCUUUCUCGAUAUCAUAUUAAUCUUU
B38: Ic_S2_P5E.1_K5.1_C5.1_H5.1_A5.1_[T6A]_[A7T]_F5.1_[T8C]_[T9A]_[A10G]_T5.1 (ssRNA)
RNA: UUUGAUUAAUAUGAUAUCGUUCUUUCUUGUAUAUCAGUUCUUUCUCGAUAUCAUAUUAAUCUUU
B39: Ic_S2_P5E.1_K5.1_C5.1_H5.1_A5.1_[T6G]_[A7T]_F5.1_[T8G]_[T9C]_[A10C]_T5.1 (ssRNA)
RNA: UUUGAUUAAUAUGAUAUCGUUCUUUCUUGUAUGUGCCUUCUUUCUCGAUAUCAUAUUAAUCUUU

Target: T1, PUF4 RNA-binding domain (Saccharomyces cerevisiae, UniProt P25339 537-888)
T1 sequence: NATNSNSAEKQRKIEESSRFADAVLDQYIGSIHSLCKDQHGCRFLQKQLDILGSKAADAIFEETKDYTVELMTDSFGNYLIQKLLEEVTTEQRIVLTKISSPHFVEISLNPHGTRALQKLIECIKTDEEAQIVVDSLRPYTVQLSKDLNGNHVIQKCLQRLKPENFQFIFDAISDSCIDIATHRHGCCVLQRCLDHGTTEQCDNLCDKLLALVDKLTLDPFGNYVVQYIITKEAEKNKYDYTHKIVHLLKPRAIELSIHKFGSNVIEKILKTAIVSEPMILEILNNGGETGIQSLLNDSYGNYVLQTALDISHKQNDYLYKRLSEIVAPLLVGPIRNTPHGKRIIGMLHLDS
Assay: Mg; RNA-MaP; 20 mM Na-HEPES pH 7.4, 30 mM KOAc, 0.75 mM MgCl2, 0.1% Tween-20, 5% glycerol, 0.1 mg/mL BSA, 2 mM DTT; 25 C; 0.0125-409.6 nM protein
Conditions: tags: N-His6-TEV cleaved; C-SNAP kept, Cy3B-labelled; label: tethered on chip by stalled RNA polymerase

Binder | Kd
UCUCUUGGUAUAUUUUCUCUU (ssRNA) [Ib_S1_P4E.1_K4.1_C4.1_H4.1_[T1G]_A4.1_F4.1_[A9T]_T4.1] | 1210 nM
UCUCUUAGUAUAUUGUCUCUU (ssRNA) [Ib_S1_P4E.1_K4.1_C4.1_H4.1_[T1A]_A4.1_F4.1_[A9G]_T4.1] | 631 nM
B1 | 3.38 nM
B2 | 623 nM
B3 | 9.09 nM
B4 | 1490 nM
B5 | 183 nM
B6 | 12.1 nM
B7 | 278 nM
B8 | 844 nM
B9 | 2.26 nM
B10 | 5.17 nM
B11 | 0.894 nM
B12 | 69.2 nM
B13 | > 2300 nM
B14 | 622 nM
B15 | 599 nM
B16 | 122 nM
B17 | 9.39 nM
B18 | 679 nM
B19 | 70.7 nM
B20 | 22.9 nM

Binder | Kd
B21 | 38.2 nM
B22 | 28.3 nM
B23 | 1200 nM
B24 | 983 nM
B25 | 50.8 nM
B26 | 8.45 nM
B27 | 7.59 nM
B28 | 768 nM
B29 | 16.4 nM
B30 | 619 nM
B31 | 413 nM
B32 | 8.11 nM
B33 | 1.53 nM
B34 | 8.63 nM
B35 | 14 nM
B36 | 67.8 nM
B37 | 99.7 nM
B38 | 24.5 nM
B39 | 49 nM
UCUCUUGGUAUAUUCUCUCUU (ssRNA) [Ib_S1_P4E.1_K4.1_C4.1_H4.1_[T1G]_A4.1_F4.1_[A9C]_T4.1] | > 2300 nM
UCUCUUCGUAUAUUCUCUCUU (ssRNA) [Ib_S1_P4E.1_K4.1_C4.1_H4.1_[T1C]_A4.1_F4.1_[A9C]_T4.1] | 1140 nM
